Data: paper PMC6031460 (Structure (London, England : 1993), 2018)

Legend:
[1] = target: Mis16-Eic1 heterodimer (S. pombe) (UniProt O94244); assay: AUC
[2] = target: Mis18 C-terminal helical domain (Mis18C) (S. pombe) (UniProt Q9P802); assay: AUC
[3] = target: S. pombe Mis16 (S. pombe) (UniProt O94244); assay: ITC
[4] = target: T1, S. pombe Mis16 (S. pombe, UniProt O94244 1-430); assay: AUC
T1 sequence (looked up): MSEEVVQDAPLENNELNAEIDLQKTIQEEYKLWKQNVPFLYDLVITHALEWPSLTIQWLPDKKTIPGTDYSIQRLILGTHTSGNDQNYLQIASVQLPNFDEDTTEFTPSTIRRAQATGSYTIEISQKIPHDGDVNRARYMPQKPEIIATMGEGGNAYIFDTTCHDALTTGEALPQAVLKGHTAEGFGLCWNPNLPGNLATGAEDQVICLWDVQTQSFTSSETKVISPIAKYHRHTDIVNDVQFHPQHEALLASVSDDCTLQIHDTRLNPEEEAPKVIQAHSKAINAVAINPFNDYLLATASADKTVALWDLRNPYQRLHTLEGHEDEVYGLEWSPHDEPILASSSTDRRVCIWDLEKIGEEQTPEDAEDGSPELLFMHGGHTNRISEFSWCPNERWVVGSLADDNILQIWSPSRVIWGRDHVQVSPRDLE

[5] = target: Mis16-Eic1 heterodimer (S. pombe) (UniProt O94244); assay: AUC; remark: listed apart in the source
[6] = target: the molecule itself; assay: AUC

For “Mis18 C-terminal helical domain (Mis18C) (from UniProt Q9P802 1-194) (domain or fragment)”, the stoichiometry N (Mis18C per Mis16-Eic1 heterodimer) [1] was 2 and the stoichiometry N [2] was 2.

“Trx-Eic1-CT (wild-type) (from UniProt O42995 91-112) (domain or fragment)” was tested, and the Kd [3] was 20.8 nM.

“Mis18C fused to maltose binding protein (MBP-Mis18C) (domain or fragment)” was tested, and the stoichiometry N (MBP-Mis18C per Mis16-Eic1 heterodimer) [1] was 2.

B1: S. pombe Eic1 (natural protein, UniProt O42995 1-112, looked up)
chain: MDLMPLEKARAIEIAFDNVFHNTKIPDNLQQFDAILKRLERRRFIPTENQKPRVYETELLVLRFREFGVKDNHNHPINLHSLRSKSLIRAQGKKLDLHNRVFLRRNVRAVKM
B1 was tested, and the “stoichiometry N” value [4] was 1 Eic1 per Mis16.

B2: S. pombe Mis18 (natural protein, UniProt Q9P802 1-194, looked up)
chain: MSQTETSHSGYIDFKKESQPSVFQCKKCFQIVGDSNAWVISHREYLSFTLSDAVENSVRVEDTFKRSDDGLCVYSELSCTRCNEVIGKVYNSTPIYLDDIRDMYTFSMDKLQAYQLGNKTVNPEGLTRYQVDLEMREDIIKLKSFCLSLYEKFELHDETLRSVKETISSLKKPKIEGKEGKKEKARTYSKRTRK
With B2 the stoichiometry N (Mis18 per Mis16-Eic1 heterodimer) [5] was 2 and the “stoichiometry N” value [6] was 4.
